Test results as given in patent US20250382384A1.

Legend:
[1] = molecular target: full-length cynomolgus MUC1 on stably transfected cells (cynomolgus); assay: FACS on HEK293/cyno MUC1
[2] = molecular target: full-length cynomolgus MUC1 on stably transfected cells (cynomolgus); assay: FACS (iQue3) on HEK293-cynoMUC1 cells
[3] = molecular target: cynomolgus MUC1 SEA domain protein (cynomolgus); assay: SPR (Biacore 2000), antibody captured, cynoMUC1 SEA analyte, 1:1 binding

Chain of full-length cynomolgus MUC1 on stably transfected cells (cynomolgus) (chain, as listed by the source limits assumed, form in doubt): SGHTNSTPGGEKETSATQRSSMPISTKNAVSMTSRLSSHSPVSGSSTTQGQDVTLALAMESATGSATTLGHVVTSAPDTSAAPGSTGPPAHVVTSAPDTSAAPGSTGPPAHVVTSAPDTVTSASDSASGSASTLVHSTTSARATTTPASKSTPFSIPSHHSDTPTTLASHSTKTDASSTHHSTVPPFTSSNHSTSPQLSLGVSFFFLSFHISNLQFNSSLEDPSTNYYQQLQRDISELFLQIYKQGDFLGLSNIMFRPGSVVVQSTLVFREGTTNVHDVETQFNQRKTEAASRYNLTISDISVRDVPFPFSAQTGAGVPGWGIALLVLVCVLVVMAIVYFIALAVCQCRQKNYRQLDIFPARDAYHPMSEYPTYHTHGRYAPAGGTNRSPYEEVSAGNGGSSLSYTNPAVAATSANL

Row | Binder | Kd [3] [nM] | further results
1 | chBG219P (antibody, V domains shown) VH: EVQLVESGGGLVKPGGSLKLSCAASGFTFNDYIMSWVRQTPEKRLEWVATVSSGGDNTYYPDSVKGRFTISRDNAKNNLYLQMSSLRSEDTALYYCTRYGGLGAMDYWGQGTSVTVSS VL: DIVMTQSPASLSASVGETVTITCRASGNIHNYLTWYQQKQGKSPQLLVYNAKTLADGVPSRFSGSGSGPQYSLKINSLQPEDFGSYYCQHFWSVPYTFGGGTRLEIK |  | EC50 [1]: 12.7 nM
2 | chBG346P (antibody, V domains shown) VH: EVQLQQSGAELVKPGASVKISCKASGYTFTNYWMNWVRQRPGQGLEWIGEIDPSDSYTNNNQKFKDKATLTVDKSSSTAYMQLSSLTSEDSAVYYCARGRRTGFAYWGQGTLVTVSS VL: DIQMTQSPASLSVSVGETVTITCRASENIYSNLAWYQKKQGKSPQLLVYAATNLADGVPSRFSGSGSGTQYSLKINSLQSEDFGNYYCQHFWGTPYTFGGGTKLEIK |  | EC50 [1]: 41.8 nM
3 | chBG138P (antibody, V domains shown) VH: QVQLLQSGAELARPGASVKMSCKASGYTFTTYTMHWIKQRPGQGLEWIGYINPGSDYTHYNQKFKDKATLTADKSSSTAYMHLYSLTSEDSAVYYCARQGNYAAYYFDYWGQGTTLTVSS VL: DIQMTQSPASLSASVGETVTITCRASGNIHNFLVWYQQKQGKSPQLLVYNAKTLTDGVPSRFSGSGSGTQYSLKIKSLQPEDFGTYYCQNFWNVPFTFGSGTKLEIK |  | EC50 [1]: 7.55 nM; EC50 (read off the curve) [2]: 4 nM
4 | BG138P-Bz15 (antibody, human IgG1, V domains shown) VH: QVQLVQSGAEVKKPGASVKVSCKASGYTFTTYTMHWIKQAPGQGLEWIGYINPGSDYTHYNQKFKDKATLTADKSASTAYMELYSLRSEDTAVYYCARQGNYAAYYFDYWGQGTLVTVSS VL: DIQMTQSPSSLSASVGDRVTITCRASGNIHNFLVWYQQKPGKSPKLLVYNAKTLTDGVPSRFSGSGSGTQYTLTISSLQPEDVATYYCQNFWNVPFTFGSGTKLEIK | 6.11 | 
5 | BG138P-Bz13 (antibody, human IgG1, V domains shown) VH: QVQLVQSGAEVKKPGASVKVSCKASGYTFTTYTMHWIKQAPGQGLEWIGYINPGSDYTHYNQKFKDKATLTADKSASTAYMELYSLRSEDTAVYYCARQGNYAAYYFDYWGQGTLVTVSS VL: DIQMTQSPSSLSASVGDRVTITCRASGNIHNFLVWYQQKPGKSPKLLVYNAKTLTDGVPSRFSGSGSGTDYSLTISSLQPEDVATYYCQNFWNVPFTFGSGTKLEIK | 6.7 | 
6 | BG138P-Bz9 (antibody, human IgG1, V domains shown) VH: QVQLVQSGAEVKKPGASVKVSCKASGYTFTTYTMHWIKQAPGQGLEWIGYINPGSDYTHYNQKFKDKATLTADTSASTAYMELYSLRSEDTAVYYCARQGNYAAYYFDYWGQGTLVTVSS VL: DIQMTQSPSSLSASVGDRVTITCRASGNIHNFLVWYQQKPGKSPKLLVYNAKTLTDGVPSRFSGSGSGTQYSLTISSLQPEDVATYYCQNFWNVPFTFGSGTKLEIK | 6.81 | 
7 | BG138P-Bz10 (antibody, human IgG1, V domains shown) VH: QVQLVQSGAEVKKPGASVKVSCKASGYTFTTYTMHWIKQAPGQGLEWIGYINPGSDYTHYNQKFKDKATLTADKSASTAYMELSSLRSEDTAVYYCARQGNYAAYYFDYWGQGTLVTVSS VL: DIQMTQSPSSLSASVGDRVTITCRASGNIHNFLVWYQQKPGKSPKLLVYNAKTLTDGVPSRFSGSGSGTQYSLTISSLQPEDVATYYCQNFWNVPFTFGSGTKLEIK | 6.28 | 
8 | BG138P-Bz4 (antibody, human IgG1, V domains shown) VH: QVQLVQSGAEVKKPGASVKVSCKASGYTFTTYTMHWIKQAPGQGLEWMGYINPGSDYTHYNQKFKDKATLTADKSASTAYMELYSLRSEDTAVYYCARQGNYAAYYFDYWGQGTLVTVSS VL: DIQMTQSPSSLSASVGDRVTITCRASGNIHNFLVWYQQKPGKSPKLLVYNAKTLTDGVPSRFSGSGSGTQYSLTISSLQPEDVATYYCQNFWNVPFTFGSGTKLEIK | 6.73 | 
9 | BG138P-Bz14 (antibody, human IgG1, V domains shown) VH: QVQLVQSGAEVKKPGASVKVSCKASGYTFTTYTMHWIKQAPGQGLEWIGYINPGSDYTHYNQKFKDKATLTADKSASTAYMELYSLRSEDTAVYYCARQGNYAAYYFDYWGQGTLVTVSS VL: DIQMTQSPSSLSASVGDRVTITCRASGNIHNFLVWYQQKPGKSPKLLVYNAKTLTDGVPSRFSGSGSGTQFSLTISSLQPEDVATYYCQNFWNVPFTFGSGTKLEIK | 24.4 | 
10 | BG138P-Bz0 (antibody, human IgG1, V domains shown) VH: QVQLVQSGAEVKKPGASVKVSCKASGYTFTTYTMHWIKQAPGQGLEWIGYINPGSDYTHYNQKFKDKATLTADKSASTAYMELYSLRSEDTAVYYCARQGNYAAYYFDYWGQGTLVTVSS VL: DIQMTQSPSSLSASVGDRVTITCRASGNIHNFLVWYQQKPGKSPKLLVYNAKTLTDGVPSRFSGSGSGTQYSLTISSLQPEDVATYYCQNFWNVPFTFGSGTKLEIK | 6.59 | 
11 | BG138P-Bz1 (antibody, human IgG1, V domains shown) VH: QVQLVQSGAEVKKPGASVKVSCKASGYTFTTYTMHWVKQAPGQGLEWIGYINPGSDYTHYNQKFKDKATLTADKSASTAYMELYSLRSEDTAVYYCARQGNYAAYYFDYWGQGTLVTVSS VL: DIQMTQSPSSLSASVGDRVTITCRASGNIHNFLVWYQQKPGKSPKLLVYNAKTLTDGVPSRFSGSGSGTQYSLTISSLQPEDVATYYCQNFWNVPFTFGSGTKLEIK | 7.18 | 
12 | BG138P-Bz11 (antibody, human IgG1, V domains shown) VH: QVQLVQSGAEVKKPGASVKVSCKASGYTFTTYTMHWIKQAPGQGLEWIGYINPGSDYTHYNQKFKDKATLTADKSASTAYMELYSLRSEDTAVYYCARQGNYAAYYFDYWGQGTLVTVSS VL: DIQMTQSPSSLSASVGDRVTITCRASGNIHNFLVWYQQKPGKVPKLLVYNAKTLTDGVPSRFSGSGSGTQYSLTISSLQPEDVATYYCQNFWNVPFTFGSGTKLEIK | 9.42 | 
13 | BG138P-Bz6 (antibody, human IgG1, V domains shown) VH: QVQLVQSGAEVKKPGASVKVSCKASGYTFTTYTMHWIKQAPGQGLEWIGYINPGSDYTHYNQKFKDKVTLTADKSASTAYMELYSLRSEDTAVYYCARQGNYAAYYFDYWGQGTLVTVSS VL: DIQMTQSPSSLSASVGDRVTITCRASGNIHNFLVWYQQKPGKSPKLLVYNAKTLTDGVPSRFSGSGSGTQYSLTISSLQPEDVATYYCQNFWNVPFTFGSGTKLEIK | 6.79 | 
14 | BG138P-Bz12 (antibody, human IgG1, V domains shown) VH: QVQLVQSGAEVKKPGASVKVSCKASGYTFTTYTMHWIKQAPGQGLEWIGYINPGSDYTHYNQKFKDKATLTADKSASTAYMELYSLRSEDTAVYYCARQGNYAAYYFDYWGQGTLVTVSS VL: DIQMTQSPSSLSASVGDRVTITCRASGNIHNFLVWYQQKPGKSPKLLIYNAKTLTDGVPSRFSGSGSGTQYSLTISSLQPEDVATYYCQNFWNVPFTFGSGTKLEIK | 6.56 | 
15 | BG138P-Bz8 (antibody, human IgG1, V domains shown) VH: QVQLVQSGAEVKKPGASVKVSCKASGYTFTTYTMHWIKQAPGQGLEWIGYINPGSDYTHYNQKFKDKATLTRDKSASTAYMELYSLRSEDTAVYYCARQGNYAAYYFDYWGQGTLVTVSS VL: DIQMTQSPSSLSASVGDRVTITCRASGNIHNFLVWYQQKPGKSPKLLVYNAKTLTDGVPSRFSGSGSGTQYSLTISSLQPEDVATYYCQNFWNVPFTFGSGTKLEIK | 13.5 | 
16 | BG138P-Bz7 (antibody, human IgG1, V domains shown) VH: QVQLVQSGAEVKKPGASVKVSCKASGYTFTTYTMHWIKQAPGQGLEWIGYINPGSDYTHYNQKFKDKATITADKSASTAYMELYSLRSEDTAVYYCARQGNYAAYYFDYWGQGTLVTVSS VL: DIQMTQSPSSLSASVGDRVTITCRASGNIHNFLVWYQQKPGKSPKLLVYNAKTLTDGVPSRFSGSGSGTQYSLTISSLQPEDVATYYCQNFWNVPFTFGSGTKLEIK | 4.35 | 
17 | BG138P-Bz2 (antibody, human IgG1, V domains shown) VH: QVQLVQSGAEVKKPGASVKVSCKASGYTFTTYTMHWIRQAPGQGLEWIGYINPGSDYTHYNQKFKDKATLTADKSASTAYMELYSLRSEDTAVYYCARQGNYAAYYFDYWGQGTLVTVSS VL: DIQMTQSPSSLSASVGDRVTITCRASGNIHNFLVWYQQKPGKSPKLLVYNAKTLTDGVPSRFSGSGSGTQYSLTISSLQPEDVATYYCQNFWNVPFTFGSGTKLEIK | 6.96 | 
18 | BG138P-Bz5 (antibody, human IgG1, V domains shown) VH: QVQLVQSGAEVKKPGASVKVSCKASGYTFTTYTMHWIKQAPGQGLEWIGYINPGSDYTHYNQKFKDRATLTADKSASTAYMELYSLRSEDTAVYYCARQGNYAAYYFDYWGQGTLVTVSS VL: DIQMTQSPSSLSASVGDRVTITCRASGNIHNFLVWYQQKPGKSPKLLVYNAKTLTDGVPSRFSGSGSGTQYSLTISSLQPEDVATYYCQNFWNVPFTFGSGTKLEIK | 6.31 | 
19 | BG138P-Bz16 (antibody, human IgG1, V domains shown) VH: QVQLVQSGAEVKKPGASVKVSCKASGYTFTTYTMHWIKQAPGQGLEWIGYINPGSDYTHYNQKFKDKATLTADKSASTAYMELYSLRSEDTAVYYCARQGNYAAYYFDYWGQGTLVTVSS VL: DIQMTQSPSSLSASVGDRVTITCRASGNIHNFLVWYQQKPGKSPKLLVYNAKTLTDGVPSRFSGSGSGTQYSLTISSLQPEDVATYYCQNFWNVPFTFGQGTKLEIK | 5.6 | 
20 | BG138P-Bz3 (antibody, human IgG1, V domains shown) VH: QVQLVQSGAEVKKPGASVKVSCKASGYTFTTYTMHWIKQAPGQRLEWIGYINPGSDYTHYNQKFKDKATLTADKSASTAYMELYSLRSEDTAVYYCARQGNYAAYYFDYWGQGTLVTVSS VL: DIQMTQSPSSLSASVGDRVTITCRASGNIHNFLVWYQQKPGKSPKLLVYNAKTLTDGVPSRFSGSGSGTQYSLTISSLQPEDVATYYCQNFWNVPFTFGSGTKLEIK | 9.04 | 
21 | BG138P-Hz0 (antibody, human IgG1, V domains shown) VH: QVQLVQSGAEVKKPGASVKVSCKASGYTFTTYTMHWVRQAPGQRLEWMGYINPGSDYTHYNQKFKDRVTITRDTSASTAYMELSSLRSEDTAVYYCARQGNYAAYYFDYWGQGTLVTVSS VL: DIQMTQSPSSLSASVGDRVTITCRASGNIHNFLVWYQQKPGKVPKLLIYNAKTLTDGVPSRFSGSGSGTDFTLTISSLQPEDVATYYCQNFWNVPFTFGQGTKLEIK | 91.7 | 
